Results: patent publication US20230047413A1

How the values were obtained:
[1] = target: PHF-tau (paired helical filament tau isolated from Alzheimer's disease brain) (human) (UniProt P10636); assay: SPR ProteOn, PHF-tau
[2] = target: tau seeds from GFP-tauP301L-overexpressing HEK cells (UniProt P10636); assay: cell-based or functional assay
[3] = target: tau seeds from cryopreserved human AD brain tissue (human) (UniProt P10636); assay: cell-based or functional assay
[4] = target: tau seeds from spinal cords of P301S transgenic animals (human) (UniProt P10636); assay: cell-based or functional assay
[5] = target: recombinant human wild-type tau (Example 1) (human) (UniProt P10636); assay: SPR Biacore, recombinant tau
[6] = target: PHF-tau (paired helical filament tau isolated from Alzheimer's disease brain) (human) (UniProt P10636); assay: SPR ProteOn, PHF-tau capture-coupled via HT7, bivalent model

Sequence of tau seeds from spinal cords of P301S transgenic animals (human) (P10636 other isoform, or with tags, fused parts or gaps P301S P301S): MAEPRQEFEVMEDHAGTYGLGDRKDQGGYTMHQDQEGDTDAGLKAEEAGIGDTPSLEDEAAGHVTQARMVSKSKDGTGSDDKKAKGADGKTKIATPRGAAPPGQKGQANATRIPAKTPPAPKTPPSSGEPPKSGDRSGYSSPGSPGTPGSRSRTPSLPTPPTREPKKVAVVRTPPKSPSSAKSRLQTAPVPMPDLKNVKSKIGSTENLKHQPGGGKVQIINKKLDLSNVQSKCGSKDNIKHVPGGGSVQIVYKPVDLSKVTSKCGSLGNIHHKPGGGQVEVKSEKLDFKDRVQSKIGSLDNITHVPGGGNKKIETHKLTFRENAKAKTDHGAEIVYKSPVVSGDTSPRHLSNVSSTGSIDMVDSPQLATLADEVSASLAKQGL
Sequence of PHF-tau (paired helical filament tau isolated from Alzheimer's disease brain) (human) (P10636 other isoform, or with tags, fused parts or gaps limits assumed): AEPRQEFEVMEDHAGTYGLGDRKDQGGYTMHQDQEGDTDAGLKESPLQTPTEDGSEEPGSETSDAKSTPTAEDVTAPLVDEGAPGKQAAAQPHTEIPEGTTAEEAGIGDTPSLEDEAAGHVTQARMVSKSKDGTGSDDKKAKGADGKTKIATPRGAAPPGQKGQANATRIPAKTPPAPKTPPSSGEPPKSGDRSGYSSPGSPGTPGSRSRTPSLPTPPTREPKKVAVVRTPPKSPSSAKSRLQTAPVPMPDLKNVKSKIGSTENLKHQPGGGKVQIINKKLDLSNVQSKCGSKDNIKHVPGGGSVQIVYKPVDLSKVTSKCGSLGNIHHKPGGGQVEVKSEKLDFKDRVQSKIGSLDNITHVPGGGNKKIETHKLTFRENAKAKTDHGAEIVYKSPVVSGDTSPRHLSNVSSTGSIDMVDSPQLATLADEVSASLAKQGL
Sequence of recombinant human wild-type tau (Example 1) (human) (P10636 other isoform, or with tags, fused parts or gaps limits assumed): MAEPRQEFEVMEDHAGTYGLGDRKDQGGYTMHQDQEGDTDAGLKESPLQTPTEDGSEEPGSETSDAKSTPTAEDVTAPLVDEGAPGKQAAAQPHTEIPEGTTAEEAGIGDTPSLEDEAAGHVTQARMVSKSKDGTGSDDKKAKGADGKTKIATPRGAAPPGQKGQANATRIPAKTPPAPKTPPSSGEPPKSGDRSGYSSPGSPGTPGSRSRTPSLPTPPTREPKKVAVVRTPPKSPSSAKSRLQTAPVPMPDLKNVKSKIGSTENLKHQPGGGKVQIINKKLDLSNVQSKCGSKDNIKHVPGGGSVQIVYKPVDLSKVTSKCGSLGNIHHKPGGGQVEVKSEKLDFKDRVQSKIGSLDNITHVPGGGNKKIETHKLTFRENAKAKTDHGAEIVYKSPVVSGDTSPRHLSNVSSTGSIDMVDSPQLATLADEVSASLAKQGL

Substance	Kd [1]	koff [1]	kon [1]	inhibition of K18 aggregate induction, BRET/GFP-tauP301L co-incubation assay, 300 nM antibody (% of negative control) [2]	FRET/human AD brain homogenate immunodepletion assay, 300 nM antibody (% of negative control) [3]	FRET/P301S spinal cord immunodepletion assay, 300 nM antibody (% of negative control) [4]	inhibition of K18 aggregate induction, FRET/P301S spinal cord co-incubation assay, 300 nM antibody (% of negative control) [4]	inhibition of K18 aggregate induction, BRET/GFP-tauP301L co-incubation assay, 166.67 nM antibody (% of negative control) [2]	inhibition of K18 aggregate induction, FRET/P301S spinal cord co-incubation assay, 89.99 nM antibody (% of negative control) [4]	Kd [5]	koff [5]	kon [5]	Kd [6]	koff [6]	kon [6]
AT8 Fab	25.8 nM	0.023 s⁻¹	889000 M⁻¹ s⁻¹	–	–	–	–	–	–	–	–	–	–	–	–
AT8 mAb (hyb) (antibody)	0.092 nM	0.000211 s⁻¹	2.3e+06 M⁻¹ s⁻¹	10.5	80.7	96.7	26.4	–	–	–	–	–	–	–	–
HT7 (antibody)	0.131 nM	9.26e-05 s⁻¹	706000 M⁻¹ s⁻¹	–	83	99.2	–	65.4	73.5	3.05 nM	0.0118 s⁻¹	3.86e+06 M⁻¹ s⁻¹	0.193 nM	0.00011 s⁻¹	569000 M⁻¹ s⁻¹
